Data taken from article PMC5824745 (The Journal of Neuroscience, 2018).

B1: Eprs (natural protein, mouse (endogenous in forebrain), UniProt Q8CGC7 1-1512, looked up)
chain: MAALCLTVNAGNPPLEALLAVEHVKGDVSISVEEGKENLLRVSETVAFTDVNSILRYLARIATTSGLYGTNLMEHTEIDHWLEFSATKLSSCDRLTSAINELNHCLSLRTYLVGNSLTLADLCVWATLKGSAAWQEHLKQNKTLVHVKRWFGFLEAQQAFRSVGTKWDVSGNRATVAPDKKQDVGKFVELPGAEMGKVTVRFPPEASGYLHIGHAKAALLNQHYQVNFKGKLIMRFDDTNPEKEKEDFEKVILEDVAMLHIKPDQFTYTSDHFETIMKYAEKLIQEGKAYVDDTPAEQMKAEREQRTESKHRKNSVEKNLQMWEEMKKGSQFGQSCCLRAKIDMSSNNGCMRDPTLYRCKIQPHPRTGNKYNVYPTYDFACPIVDSIEGVTHALRTTEYHDRDEQFYWIIEALGIRKPYIWEYSRLNLNNTVLSKRKLTWFVNEGLVDGWDDPRFPTVRGVLRRGMTVEGLKQFIAAQGSSRSVVNMEWDKIWAFNKKVIDPVAPRYVALLKKEVVPVNVLDAQEEMKEVARHPKNPDVGLKPVWYSPKVFIEGADAETFSEGEMVTFINWGNINITKIHKNADGKITSLDAKLNLENKDYKKTTKITWLAESTHALSIPAVCVTYEHLITKPVLGKDEDFKQYINKDSKHEELMLGDPCLKDLKKGDIIQLQRRGFFICDQPYEPVSPYSCREAPCILIYIPDGHTKEMPTSGSKEKTKVEISKKETSSAPKERPAPAVSSTCATAEDSSVLYSRVAVQGDVVRELKAKKAPKEDIDAAVKQLLTLKAEYKEKTGQEYKPGNPSAAAVQTVSTKSSSNTVESTSLYNKVAAQGEVVRKLKAEKAPKAKVTEAVECLLSLKAEYKEKTGKDYVPGQPPASQNSHSNPVSNAQPAGAEKPEAKVLFDRVACQGEVVRKLKAEKASKDQVDSAVQELLQLKAQYKSLTGIEYKPVSATGAEDKDKKKKEKENKSEKQNKPQKQNDGQGKDSSKSQGSGLSSGGAGEGQGPKKQTRLGLEAKKEENLAEWYSQVITKSEMIEYYDVSGCYILRPWSYSIWESIKDFFDAEIKKLGVENCYFPIFVSQAALEKEKNHIEDFAPEVAWVTRSGKTELAEPIAIRPTSETVMYPAYAKWVQSHRDLPVRLNQWCNVVRWEFKHPQPFLRTREFLWQEGHSAFATFEEAADEVLQILELYARVYEELLAIPVVRGRKTEKEKFAGGDYTTTIEAFISASGRAIQGATSHHLGQNFSKMCEIVFEDPKTPGEKQFAYQCSWGLTTRTIGVMVMVHGDNMGLVLPPRVASVQVVVIPCGITNALSEEDREALMAKCNEYRRRLLGANIRVRVDLRDNYSPGWKFNHWELKGVPVRLEVGPRDMKSCQFVAVRRDTGEKLTIAEKEAEAKLEKVLEDIQLNLFTRASEDLKTHMVVSNTLEDFQKVLDAGKVAQIPFCGEIDCEDWIKKMTARDQDVEPGAPSMGAKSLCIPFNPLCELQPGAMCVCGKNPAKFYTLFGRSY
notes: Eprs (glutamyl-prolyl-tRNA synthetase), mouse, endogenous in forebrain; also called GAIT complex protein; source: endogenous, mouse forebrain lysate (WT or 4Eki)
B2: Gapdh (natural protein)
chain: not shown
notes: Gapdh, mouse, endogenous in forebrain; also called GAIT complex protein; source: endogenous, mouse forebrain lysate (WT or 4Eki)
B3: eIF4G (natural protein, mouse (endogenous in forebrain), UniProt Q6NZJ6 1-1600, looked up)
chain: MNKAPQPTGPPPARSPGLPQPAFPPGQTAPVVFSTPQATQMNTPSQPRQGGFRSLQHFYPSRAQPPSSAASRVQSAAPARPGPAPHVYPAGSQVMMIPSQISYSASQGAYYIPGQGRSTYVVPTQQYPVQPGAPGFYPGASPTEFGTYAGAYYPAQGVQQFPASVAPAPVLMNQPPQIAPKRERKTIRIRDPNQGGKDITEEIMSGARTASTPTPPQTGGSLEPQPNGESPQVAVIIRPDDRSQGAAIGGRPGLPGPEHSPGTESQPSSPSPTPSPPPILEPGSESNLGVLSIPGDTMTTGMIPMSVEESTPISCETGEPYCLSPEPTLAEPILEVEVTLSKPIPESEFSSSPLQVSTALVPHKVETHEPNGVIPSEDLEPEVESSTEPAPPPLSPCASESLVPIAPTAQPEELLNGAPSPPAVDLSPVSEPEEQAKKVSSAALASILSPAPPVAPSDTSPAQEEEMEEDDDDEEGGEAESEKGGEDVPLDSTPVPAQLSQNLEVAAATQVAVSVPKRRRKIKELNKKEAVGDLLDAFKEVDPAVPEVENQPPTGSNPSPESEGSMVPTQPEETEETWDSKEDKIHNAENIQPGEQKYEYKSDQWKPLNLEEKKRYDREFLLGFQFIFASMQKPEGLPHITDVVLDKANKTPLRQLDPSRLPGINCGPDFTPSFANLGRPALSNRGPPRGGPGGELPRGPAGLGPRRSQQGPRKETRKIISSVIMTEDIKLNKAEKAWKPSSKRTAADKDRGEEDADGSKTQDLFRRVRSILNKLTPQMFQQLMKQVTQLAIDTEERLKGVIDLIFEKAISEPNFSVAYANMCRCLMALKVPTTEKPTVTVNFRKLLLNRCQKEFEKDKDDDEVFEKKQKEMDEAATAEERGRLKEELEEARDIARRRSLGNIKFIGELFKLKMLTEAIMHDCVVKLLKNHDEESLECLCRLLTTIGKDLDFAKAKPRMDQYFNQMEKIIKEKKTSSRIRFMLQDVLDLRQSNWVPRRGDQGPKTIDQIHKEAEMEEHREHIKVQQLMAKGSDKRRGGPPGPPINRGLPLVDDGGWNTVPISKGSRPIDTSRLTKITKPGSIDSNNQLFAPGGRLSWGKGSSGGSGAKPSDTASEATRPATLNRFSALQQTLPAENTDNRRVVQRSSLSRERGEKAGDRGDRLERSERGGDRGDRLDRARTPATKRSFSKEVEERSRERPSQPEGLRKAASLTEDRGRDPVKREATLPPVSPPKAALSVDEVEKKSKAIIEEYLHLNDMKEAVQCVQELASPSLLFIFVRLGIESTLERSTIAREHMGRLLHQLLCAGHLSTAQYYQGLYETLELAEDMEIDIPHVWLYLAELITPILQEDGVPMGELFREITKPLRPMGKATSLLLEILGLLCKSMGPKKVGMLWREAGLSWREFLAEGQDVGSFVAEKKVEYTLGEESEAPGQRTLAFEELRRQLEKLLKDGGSNQRVFDWIDANLNEQQIASNTLVRALMTTVCYSAIIFETPLRVDVQVLKVRARLLQKYLCDEQKELQALYALQALVVTLEQPANLLRMFFDALYDEDVVKEDAFYSWESSKDPAEQQGKGVALKSVTAFFNWLREAEDEESDHN
notes: eIF4G, mouse, endogenous in forebrain; detected with an antibody against eIF4G1 (Cell Signaling Technology 2498); also called eIF4G1; scaffolding protein of eIF4F; source: endogenous, mouse forebrain lysate (WT or 4Eki)

Assays:
[1] = target: T1, eukaryotic Initiation Factor 4E (eIF4E), wild type (mouse (endogenous in forebrain), UniProt P63073 1-217); test: pull-down; cap-column pulldown: 500 ug forebrain lysate protein with 50 ul m7GDP agarose in buffer C (50 mM MOPS-KOH pH 7.4, 100 mM NaCl, 50 mM NaF, 0.5 mM EDTA, 0.5 mM EGTA, 0.1 mM GTP), 90 min at 4 C; eIF4E held by its ligand m7GDP; cap-bound fraction immunoblotted and quantified, normalised to input; conditions: partners not purified
T1 construct: also called WT; source: endogenous, WT mouse forebrain lysate

[2] = target: T2, eIF4E Ser209Ala (knock-in, 4Eki mice) (mouse (endogenous in forebrain), UniProt P63073 1-217, Ser209Ala); test: as above; conditions: partners not purified
T2 construct: The mice are described in Gkogkas et al., 2014; also called Ser209Ala mutant; source: endogenous (knock-in allele), 4Eki mouse forebrain lysate

| Binder | cap-bound protein (arbitrary units, normalised to input) [1] [arbitrary units] | cap-bound protein (arbitrary units, normalised to input) [2] [arbitrary units] |
| --- | --- | --- |
| B1 | 1 |  |
| B2 |  | 0.775 |
| B3 | 1 | 0.83 |
